For this assay, the target named is T1, recombinant human NME7-AB (human, UniProt Q9Y5B8 92-376).
T1 construct: Truncated recombinant human NME7, about 33 kDa, active as a monomer; also called rhMNE7-AB
T1 sequence: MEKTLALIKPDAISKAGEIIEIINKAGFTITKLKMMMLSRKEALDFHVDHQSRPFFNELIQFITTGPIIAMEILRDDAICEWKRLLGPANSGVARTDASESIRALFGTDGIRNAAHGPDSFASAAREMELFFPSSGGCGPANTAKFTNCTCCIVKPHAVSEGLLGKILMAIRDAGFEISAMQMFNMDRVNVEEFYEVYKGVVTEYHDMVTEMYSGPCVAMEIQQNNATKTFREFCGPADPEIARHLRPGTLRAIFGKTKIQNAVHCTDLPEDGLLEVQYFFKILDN
The experiment in a line: sandwich ELISA, PSMGFR peptide coated on the surface, HRP signal.

B1: MUC1* extracellular domain peptide PSMGFR (peptide)
peptide: GTINVHDVETQFNQYKTEAASRYNLTISDVSVSDVPFPFSAQSGA
notes: Synthetic peptide; also called PSMGFR peptide; MUC1* peptide
As to B1, the binding result was “binds”.

These data come from patent publication US20180235193A1 (MINERVA BIOTECHNOLOGIES, published 2018).
